Values of other authors as cited in publication PMC6615252, “The binding affinity of PTPN13’s tandem PDZ2/3 domain is allosterically modulated” (BMC Molecular and Cell Biology, 2019).

Tested on: PDZ4 domain of PTPN13
Conditions: ref [39]; cited from earlier work
From the text: This might also explain as to why the observed in vitro affinities of PTPN13 for APC and PRK2 are low in comparison to known examples for PDZ-ligand interactions.

B1: PARG1: RhoGAP protein PARG1 (protein, UniProt Q52LW3 1-1261, looked up)
Rho GTPase-activating protein …: MIAHKQKKTKKKRAWASGQLSTDITTSEMGLKSLSSNSIFDPDYIKELVNDIRKFSHMLLYLKEAIFSDCFKEVIHIRLEELLRVLKSIMNKHQNLNSVDLQNAAEMLTAKVKAVNFTEVNEENKNDLFQEVFSSIETLAFTFGNILTNFLMGDVGNDSLLRLPVSRETKSFENVSVESVDSSSEKGNFSPLELDNVLLKNTDSIELALSYAKTWSKYTKNIVSWVEKKLNLELESTRNMVKLAEATRTNIGIQEFMPLQSLFTNALLNDIESSHLLQQTIAALQANKFVQPLLGRKNEMEKQRKEIKELWKQEQNKMLEAENALKKAKLLCMQRQDEYEKAKSSMFRAEEEHLSSSGGLAKNLNKQLEKKRRLEEEALQKVEEANELYKVCVTNVEERRNDLENTKREILAQLRTLVFQCDLTLKAVTVNLFHMQHLQAASLADSLQSLCDSAKLYDPGQEYSEFVKATNSTEEEKVDGNVNKHLNSSQPSGFGPANSLEDVVRLPDSSNKIEEDRCSNSADITGPSFIRSWTFGMFSDSESTGGSSESRSLDSESISPGDFHRKLPRTPSSGTMSSADDLDEREPPSPSETGPNSLGTFKKTLMSKAALTHKFRKLRSPTKCRDCEGIVVFQGVECEECLLVCHRKCLENLVIICGHQKLPGKIHLFGAEFTQVAKKEPDGIPFILKICASEIENRALCLQGIYRVCGNKIKTEKLCQALENGMHLVDISEFSSHDICDVLKLYLRQLPEPFILFRLYKEFIDLAKEIQHVNEEQETKKNSLEDKKWPNMCIEINRILLKSKDLLRQLPASNFNSLHFLIVHLKRVVDHAEENKMNSKNLGVIFGPSLIRPRPTTAPITISSLAEYSNQARLVEFLITYSQKIFDGSLQPQDVMCSIGVVDQGCFPKPLLSPEERDIERSMKSLFFSSKEDIHTSESESKIFERATSFEESERKQNALGKCDACLSDKAQLLLDQEAESASQKIEDGKTPKPLSLKSDRSTNNVERHTPRTKIRPVSLPVDRLLLASPPNERNGRNMGNVNLDKFCKNPAFEGVNRKDAATTVCSKFNGFDQQTLQKIQDKQYEQNSLTAKTTMIMPSALQEKGVTTSLQISGDHSINATQPSKPYAEPVRSVREASERRSSDSYPLAPVRAPRTLQPQHWTTFYKPHAPIISIRGNEEKPASPSAAVPPGTDHDPHGLVVKSMPDPDKASACPGQATGQPKEDSEELGLPDVNPMCQRPRLKRMQQFEDLEGEIPQFV
  binding to PDZ4 domain: binds
